Paper PMC6355928

Biological target: Rheb (UniProt Q15382)
Assay: co-immunoprecipitation, Western blot
Details: reference: USP4 wild type; sites S445

For USP4 (from UniProt Q13107) USP4-S445A, the “binding against the reference” value was “weaker”.
